In patent publication US20260166139A1:
Where “and” joins values, the source holds several entries; their conditions need not be identical. Equal entries are not always repeated.

Assays:
CTLA4-mFc [1] = assay: competitive ELISA, competitor B7-2; control run with 8D2
CTLA4-mFc [2] = assay: competition ELISA, coat B7/1-hFc 0.2 ug/ml (competitor), CTLA4-mFc 0.3 ug/ml detected; antibody 1:243 (start 3 ug/ml)
human CTLA4 (human) [3] = target: human CTLA4 (human) (UniProt P16410); assay: ELISA, coat CTLA4 0.5 ug/ml; antibody 1:729 (start 1 ug/ml)
[4] = target: monkey CTLA4-hFc (monkey); assay: ELISA on coated CTLA4, source Monkey (row of 8D2H3L3)
human CTLA4 (human) [5] = target: human CTLA4 (human) (UniProt P16410); assay: ELISA, coat human CTLA4 0.5 ug/ml; antibody 1 ug/ml
human CTLA4 (human) [6] = target: human CTLA4 (human) (UniProt P16410); assay: ELISA, coat human CTLA4 0.5 ug/ml; antibody 1:729 (start 1 ug/ml)
CTLA4-mFc [7] = assay: competitive ELISA, competitor B7-2; control run with 8D2H2L15
CTLA4-mFc [8] = assay: competitive ELISA, competitor B7-1; control run with 8D2H2L17
human CTLA4 (human) [9] = target: human CTLA4 (human) (UniProt P16410); assay: ELISA, coat human CTLA4 0.5 ug/ml; antibody 1:9 (start 1 ug/ml)
CTLA4-mFc [10] = assay: competitive ELISA, CTLA4-mFc coated, competitor B7/2-His; antibody 3 µg/ml diluted 1:243
[11] = target: monkey CTLA4-hFc (monkey); assay: ELISA, coat monkey CTLA4-hFc 0.25 ug/ml; antibody 1:27 (start 1 ug/ml)
CTLA4-mFc [12] = assay: competition ELISA, coat B7/1-hFc 0.2 ug/ml (competitor), CTLA4-mFc 0.3 ug/ml detected; antibody 1:27 (start 3 ug/ml)
human CTLA4 (human) [13] = target: human CTLA4 (human) (UniProt P16410); assay: ELISA, coat CTLA4 0.5 ug/ml; antibody 1 ug/ml
human CTLA4 (human) [14] = target: human CTLA4 (human) (UniProt P16410); assay: ELISA, coat human CTLA4 0.5 ug/ml; antibody 1:729 (start 1 ug/ml); remark: listed apart in the source
CTLA4-mFc [15] = assay: competitive ELISA, B7/1-hFc coated (competitor), CTLA4-mFc added; antibody 5 µg/ml diluted 1:3
human CTLA4 (human) [16] = target: human CTLA4 (human) (UniProt P16410); assay: ELISA, coat human CTLA4 0.5 ug/ml; antibody 1 ug/ml; remark: listed apart in the source
CTLA4-mFc [17] = assay: competitive ELISA, CTLA4-mFc coated, competitor B7/2-His; antibody 1.5 µg/ml diluted 1:81
CTLA4-mFc [18] = assay: competitive ELISA, CTLA4-mFc coated, competitor B7/2-His; antibody 0 (no antibody)
human CTLA4 (human) [19] = target: human CTLA4 (human) (UniProt P16410); assay: ELISA, coat human CTLA4 0.5 ug/ml; antibody 1:27 (start 1 ug/ml)
CTLA4-mFc [20] = assay: competition ELISA, coat B7/1-hFc 0.2 ug/ml (competitor), CTLA4-mFc 0.3 ug/ml detected; antibody 0 (no antibody)
CTLA4-mFc [21] = assay: competitive ELISA, B7/1-hFc coated (competitor), CTLA4-mFc added; antibody 5 µg/ml diluted 1:27
CTLA4-mFc [22] = assay: competitive ELISA, competitor B7-1; control run with 8D2H3L3
CTLA4-mFc [23] = assay: competitive ELISA, CTLA4-mFc coated, competitor B7/2-His; antibody 0 (no antibody); remark: listed apart in the source
human CTLA4 (human) [24] = target: human CTLA4 (human) (UniProt P16410); assay: ELISA on coated CTLA4, source Human (row of 8D2H2L17)
CTLA4-mFc [25] = assay: competitive ELISA, B7/1-hFc coated (competitor), CTLA4-mFc added; antibody 5 µg/ml diluted 1:243
CTLA4-mFc [26] = assay: competitive ELISA, CTLA4-mFc coated, competitor B7/2-His; antibody 1 µg/ml diluted 1:81
CTLA4-mFc [27] = assay: competition ELISA, coat B7/1-hFc 0.2 ug/ml (competitor), CTLA4-mFc 0.3 ug/ml detected; antibody 1:729 (start 3 ug/ml)

CTLA4-mFc, sequence (chain, as listed by the source limits assumed): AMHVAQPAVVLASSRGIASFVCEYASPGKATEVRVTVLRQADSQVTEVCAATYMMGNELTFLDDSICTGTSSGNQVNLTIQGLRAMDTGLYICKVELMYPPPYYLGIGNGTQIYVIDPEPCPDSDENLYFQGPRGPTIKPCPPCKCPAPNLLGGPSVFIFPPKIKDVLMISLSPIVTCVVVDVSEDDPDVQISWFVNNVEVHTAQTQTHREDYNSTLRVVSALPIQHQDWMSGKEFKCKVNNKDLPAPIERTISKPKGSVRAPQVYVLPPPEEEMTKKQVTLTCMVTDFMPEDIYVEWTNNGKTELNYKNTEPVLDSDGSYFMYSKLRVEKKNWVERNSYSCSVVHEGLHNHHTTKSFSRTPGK
control antibody 11.2.1, sequence (VH): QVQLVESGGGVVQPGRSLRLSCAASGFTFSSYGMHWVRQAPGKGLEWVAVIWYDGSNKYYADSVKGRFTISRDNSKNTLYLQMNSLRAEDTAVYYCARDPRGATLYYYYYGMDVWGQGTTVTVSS
control antibody 11.2.1, sequence (VL): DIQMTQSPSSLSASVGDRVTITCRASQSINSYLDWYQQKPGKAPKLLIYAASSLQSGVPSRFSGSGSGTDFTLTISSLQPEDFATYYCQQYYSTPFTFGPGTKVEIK
human CTLA4 (human), sequence (P16410 36-161 limits assumed): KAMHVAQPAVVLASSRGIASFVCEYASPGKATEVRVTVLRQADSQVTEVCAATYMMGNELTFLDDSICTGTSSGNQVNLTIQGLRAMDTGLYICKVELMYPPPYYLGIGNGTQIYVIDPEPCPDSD

Substance: control antibody 11.2.1
- EC50 (CTLA4-mFc [1]): 0.15 nM
- absorbance at 450 nm (CTLA4-mFc [2]): 0.9 and 0.52
- absorbance at 450 nm (human CTLA4 (human) [3]): 0.32 and 0.31
- EC50 [4]: 0.075 nM
- absorbance at 450 nm (human CTLA4 (human) [5]): 3.58 and 3.55
- absorbance at 450 nm (human CTLA4 (human) [6]): 0.127 and 0.136
- EC50 (CTLA4-mFc [7]): 0.349 nM
- EC50 (CTLA4-mFc [8]): 2.61 nM
- absorbance at 450 nm (human CTLA4 (human) [9]): 1.29 and 1.41
- absorbance at 450 nm (CTLA4-mFc [10]): 1.24 and 1.21
- absorbance at 450 nm [11]: 0.625 and 0.665
- absorbance at 450 nm (CTLA4-mFc [12]): 0.597 and 0.579
- absorbance at 450 nm (human CTLA4 (human) [13]): 2.75 and 2.69
- absorbance at 450 nm (human CTLA4 (human) [14]): 0.253 and 0.263
- absorbance at 450 nm (CTLA4-mFc [15]): 0.09 and 0.097
- absorbance at 450 nm (human CTLA4 (human) [16]): 2.21 and 2.15
- absorbance at 450 nm (CTLA4-mFc [17]): 0.805 and 0.649
- absorbance at 450 nm (CTLA4-mFc [18]): 0.91 and 0.8
- absorbance at 450 nm (human CTLA4 (human) [19]): 0.893 and 0.682
- absorbance at 450 nm (CTLA4-mFc [20]): 0.826 and 0.55
- absorbance at 450 nm (CTLA4-mFc [21]): 0.488 and 0.369
- EC50 (CTLA4-mFc [22]): 1.07 nM
- absorbance at 450 nm (CTLA4-mFc [23]): 0.987 and 0.819
- EC50 (human CTLA4 (human) [24]): 0.075 nM
- absorbance at 450 nm (CTLA4-mFc [25]): 0.755 and 0.9
- absorbance at 450 nm (CTLA4-mFc [26]): 0.84 and 0.76
- absorbance at 450 nm (CTLA4-mFc [27]): 0.993 and 0.841
